Target: microtubule (sea-urchin sperm axonemes) (sea urchin (sperm axonemes))
Experiment: single-molecule fluorescence imaging

2T-K490CLM, two-tail stalk-truncated cysteine-light mutant kinesin (motility and ATPase experiments) (from UniProt P33176 1-490; P33176 904-963)
duration time on MT (short stop mode): 1.47 s

tail-GFP (kinesin tail 904-963 fused to EGFP) (from UniProt P33176 904-963) (domain or fragment)
duration time on MT (diffusive mode): 1.73 s

Source: PMC4629677
